The values below come from publication PMC12102759 (2025).

B1: AZIN2 peptide 1-16 (Antizyme inhibitor 2), 16-mer library wild type / NSP3 ADRP (ORF1ab Nsp3b ADRP, residues 1023-1192) (parent complex)
chain 1: MAGYLSESDFVMVEEG
chain 2: not shown
B2: PEX5 peptide 240-255 (Peroxisomal targeting signal 1 receptor), 16-mer library wild type / PEX14 Pex14 (PEX14 PEX14, residues 16-84) (parent complex)
chain 1: AEQWAAEFIQQQGTSD
chain 2: TPGSENVLPREPLIATAVKFLQNSRVRQSPLATRRAFLKKKGLTDEEIDMAFQQSGTAADEPSSLGPAT
B3: PRDM14 peptide 196-211 (PR domain zinc finger protein 14), 16-mer library wild type / NSP3 SUD-M (ORF1ab Nsp3c SUD-M, residues 1356-1493) (parent complex)
chain 1: QFTEEDLHFVLYGVTP
chain 2: LPSIISNEKQEILGTVSWNLREMLAHAEETRKLMPVCVETKAIVSTIQRKYKGIKIQEGVVDYGARFYFYTSKTTVASLINTLNDLNETLVTMPLGYVTHGLNLEEAARYMRSLKVPATVSVSSPDAVTAYNGYLTSS

Variants of B1 are the subject of the first assay. Nature of the assay: bait immobilised on MaxiSorp plates (10 µg), library pre-cleared on GST, 2 h binding at 4 °C, five washes; one round per day, days 1-4; value from days 2 and 3.
As for chain 1 G16T, the screen value was 0.000528 average fractional NGS count over selection days 2 and 3 (reads of this peptide / all reads for the bait, averaged over ….
Still for that read-out and setting: the same measure for chain 1 G16K: 0.000188 average fractional NGS count over selection days 2 and 3 (reads of this peptide / all reads for the bait, averaged over …; for chain 1 V13Q: 0.000748 average fractional NGS count over selection days 2 and 3 (reads of this peptide / all reads for the bait, averaged over ….
Still for that read-out and setting: then chain 1 S8Y, with 0.035 average fractional NGS count over selection days 2 and 3 (reads of this peptide / all reads for the bait, averaged over ….
Turning to chain 1 S8L, the screen value was 0.000166 average fractional NGS count over selection days 2 and 3 (reads of this peptide / all reads for the bait, averaged over ….
In the case of chain 1 G3A, the screen value is 0.000627 average fractional NGS count over selection days 2 and 3 (reads of this peptide / all reads for the bait, averaged over ….
On the same count and under the same terms, then chain 1 D9E, with 0.000316 average fractional NGS count over selection days 2 and 3 (reads of this peptide / all reads for the bait, averaged over …; and chain 1 M12R, with 0.000896 average fractional NGS count over selection days 2 and 3 (reads of this peptide / all reads for the bait, averaged over ….
Same read-out and setting: the same measure for chain 1 M12E: 0.000138 average fractional NGS count over selection days 2 and 3 (reads of this peptide / all reads for the bait, averaged over …; for chain 1 M12L: 0.0611 average fractional NGS count over selection days 2 and 3 (reads of this peptide / all reads for the bait, averaged over ….

The next assay covers variants of B2. As to the kind of experiment: proteomic peptide phage display deep mutational scan (ProP-PD DMS): M13 P8 16-mer library selected against immobilised GST-tagged bait for four days (rounds), NGS of the eluted pools per day and pseudo-replica; bait immobilised on MaxiSorp plates (10 µg), library pre-cleared on GST, 2 h binding at 4 °C, five washes; one round per day, days 1-4; value from days 2 and 3.
Regarding chain 1 AEQWAAEFIQQQGVSD [chain 1 T14V], the screen value is 0.000546 average fractional NGS count over selection days 2 and 3 (reads of this peptide / all reads for the bait, averaged over ….
With chain 1 AEQWAAVFIQQQGTSD [chain 1 E7V], the screen value is 0.000633 average fractional NGS count over selection days 2 and 3 (reads of this peptide / all reads for the bait, averaged over ….
Still for that read-out and setting: the same measure for chain 1 AEQWAAEFIQAQGTSD [chain 1 Q11A]: 0.00173 average fractional NGS count over selection days 2 and 3 (reads of this peptide / all reads for the bait, averaged over …; for chain 1 AETWAAEFIQQQGTSD [chain 1 Q3T]: 0.00148 average fractional NGS count over selection days 2 and 3 (reads of this peptide / all reads for the bait, averaged over …; for chain 1 AEQWYAEFIQQQGTSD [chain 1 A5Y]: 0.00174 average fractional NGS count over selection days 2 and 3 (reads of this peptide / all reads for the bait, averaged over ….
On the same count and under the same terms, the same measure for chain 1 AEQWQAEFIQQQGTSD [chain 1 A5Q]: 0.00841 average fractional NGS count over selection days 2 and 3 (reads of this peptide / all reads for the bait, averaged over …; for chain 1 AEQWAEEFIQQQGTSD [chain 1 A6E]: 0.000449 average fractional NGS count over selection days 2 and 3 (reads of this peptide / all reads for the bait, averaged over …; for chain 1 AEQWAWEFIQQQGTSD [chain 1 A6W]: 0.00422 average fractional NGS count over selection days 2 and 3 (reads of this peptide / all reads for the bait, averaged over ….
Regarding chain 1 AEQWAAEFIQQQHTSD [chain 1 G13H], the screen value is 0.00793 average fractional NGS count over selection days 2 and 3 (reads of this peptide / all reads for the bait, averaged over ….
As to chain 1 AEQWAAEFNQQQGTSD [chain 1 I9N], the screen value is 0.00185 average fractional NGS count over selection days 2 and 3 (reads of this peptide / all reads for the bait, averaged over ….
Consider chain 1 AEQWAAEFVQQQGTSD [chain 1 I9V], for which the screen value is 0.00275 average fractional NGS count over selection days 2 and 3 (reads of this peptide / all reads for the bait, averaged over ….
On the same count and under the same terms, the same measure for chain 1 AEQWAAEFEQQQGTSD [chain 1 I9E]: 0.00149 average fractional NGS count over selection days 2 and 3 (reads of this peptide / all reads for the bait, averaged over …; for chain 1 AEQWAAEFIPQQGTSD [chain 1 Q10P]: 0.00113 average fractional NGS count over selection days 2 and 3 (reads of this peptide / all reads for the bait, averaged over ….
As to chain 1 DEQWAAEFIQQQGTSD [chain 1 A1D], the screen value is 0.00705 average fractional NGS count over selection days 2 and 3 (reads of this peptide / all reads for the bait, averaged over ….
Same read-out and setting: then chain 1 YEQWAAEFIQQQGTSD [chain 1 A1Y], with 0.017 average fractional NGS count over selection days 2 and 3 (reads of this peptide / all reads for the bait, averaged over …; and chain 1 NEQWAAEFIQQQGTSD [chain 1 A1N], with 0.00349 average fractional NGS count over selection days 2 and 3 (reads of this peptide / all reads for the bait, averaged over ….
Same read-out and setting: the same measure for chain 1 MEQWAAEFIQQQGTSD [chain 1 A1M]: 0.000375 average fractional NGS count over selection days 2 and 3 (reads of this peptide / all reads for the bait, averaged over ….

The variants in another assay derive from B3. Nature of the assay: bait immobilised on MaxiSorp plates (10 µg), library pre-cleared on GST, 2 h binding at 4 °C, five washes; one round per day, days 1-4; value from days 2 and 3.
Consider chain 1 QFSEEDLHFVLYGVTP [chain 1 T3S], for which the screen value was 0.000238 average fractional NGS count over selection days 2 and 3 (reads of this peptide / all reads for the bait, averaged over ….
The same measure, in the same setting: the same measure for chain 1 QFTEEELHFVLYGVTP [chain 1 D6E]: 0.0721 average fractional NGS count over selection days 2 and 3 (reads of this peptide / all reads for the bait, averaged over …; for chain 1 QFTEEVLHFVLYGVTP [chain 1 D6V]: 5.37e-05 average fractional NGS count over selection days 2 and 3 (reads of this peptide / all reads for the bait, averaged over …; for chain 1 QFTEEALHFVLYGVTP [chain 1 D6A]: 6.63e-05 average fractional NGS count over selection days 2 and 3 (reads of this peptide / all reads for the bait, averaged over ….
Still for that read-out and setting: the same measure for chain 1 QFTEEGLHFVLYGVTP [chain 1 D6G]: 5.78e-05 average fractional NGS count over selection days 2 and 3 (reads of this peptide / all reads for the bait, averaged over …; for chain 1 QFTEEDLHFVLYGVTY [chain 1 P16Y]: 0.000111 average fractional NGS count over selection days 2 and 3 (reads of this peptide / all reads for the bait, averaged over …; for chain 1 QFTEEDLHFVLYGVTD [chain 1 P16D]: 0.004 average fractional NGS count over selection days 2 and 3 (reads of this peptide / all reads for the bait, averaged over ….
Still for that read-out and setting: then chain 1 QFTEEDLHFVLYGVTR [chain 1 P16R], with 6.57e-05 average fractional NGS count over selection days 2 and 3 (reads of this peptide / all reads for the bait, averaged over …; and chain 1 QFTEEDLHFVLYGVTS [chain 1 P16S], with 0.145 average fractional NGS count over selection days 2 and 3 (reads of this peptide / all reads for the bait, averaged over ….
Consider chain 1 QFTEEDLHFVLYGVTF [chain 1 P16F], for which the screen value was 0.000936 average fractional NGS count over selection days 2 and 3 (reads of this peptide / all reads for the bait, averaged over ….
Still for that read-out and setting: then chain 1 QFTEEDLHFVLYGVTV [chain 1 P16V], with 0.000126 average fractional NGS count over selection days 2 and 3 (reads of this peptide / all reads for the bait, averaged over …; and chain 1 QFTEEDLHFVLYGVTL [chain 1 P16L], with 0.00707 average fractional NGS count over selection days 2 and 3 (reads of this peptide / all reads for the bait, averaged over …; and chain 1 QFTEEDLHFVLYGVTH [chain 1 P16H], with 0.000235 average fractional NGS count over selection days 2 and 3 (reads of this peptide / all reads for the bait, averaged over ….
On to chain 1 QFTEEDLHFVLYGVTE [chain 1 P16E], for which the screen value is 9.32e-05 average fractional NGS count over selection days 2 and 3 (reads of this peptide / all reads for the bait, averaged over ….
For chain 1 QFTEEDLHFVLYGVTK [chain 1 P16K], the screen value is 9.04e-05 average fractional NGS count over selection days 2 and 3 (reads of this peptide / all reads for the bait, averaged over ….
Still for that read-out and setting: then chain 1 QFTEEDLHFVLMGVTP [chain 1 Y12M], with 4.44e-05 average fractional NGS count over selection days 2 and 3 (reads of this peptide / all reads for the bait, averaged over …; and chain 1 QFTEEDLHFVLEGVTP [chain 1 Y12E], with 0.000104 average fractional NGS count over selection days 2 and 3 (reads of this peptide / all reads for the bait, averaged over …; and chain 1 QFTQEDLHFVLYGVTP [chain 1 E4Q], with 4.52e-05 average fractional NGS count over selection days 2 and 3 (reads of this peptide / all reads for the bait, averaged over ….
Same read-out and setting: then chain 1 QFTEEDRHFVLYGVTP [chain 1 L7R], with 7.05e-05 average fractional NGS count over selection days 2 and 3 (reads of this peptide / all reads for the bait, averaged over …; and chain 1 QFTEEDLTFVLYGVTP [chain 1 H8T], with 0.000106 average fractional NGS count over selection days 2 and 3 (reads of this peptide / all reads for the bait, averaged over …; and chain 1 QFTEEDLMFVLYGVTP [chain 1 H8M], with 0.194 average fractional NGS count over selection days 2 and 3 (reads of this peptide / all reads for the bait, averaged over ….
Same read-out and setting: the same measure for chain 1 QFTEEDLKFVLYGVTP [chain 1 H8K]: 0.000229 average fractional NGS count over selection days 2 and 3 (reads of this peptide / all reads for the bait, averaged over ….
chain 1 QFTEEDLRFVLYGVTP [chain 1 H8R]: the screen value is 0.0209 average fractional NGS count over selection days 2 and 3 (reads of this peptide / all reads for the bait, averaged over ….
On the same count and under the same terms, the same measure for chain 1 QFTEEDLVFVLYGVTP [chain 1 H8V]: 0.000167 average fractional NGS count over selection days 2 and 3 (reads of this peptide / all reads for the bait, averaged over …; for chain 1 QFTEEDLYFVLYGVTP [chain 1 H8Y]: 5.98e-05 average fractional NGS count over selection days 2 and 3 (reads of this peptide / all reads for the bait, averaged over …; for chain 1 QFTEEDLIFVLYGVTP [chain 1 H8I]: 8.91e-05 average fractional NGS count over selection days 2 and 3 (reads of this peptide / all reads for the bait, averaged over ….
Same read-out and setting: the same measure for chain 1 QFTEEDLAFVLYGVTP [chain 1 H8A]: 0.00113 average fractional NGS count over selection days 2 and 3 (reads of this peptide / all reads for the bait, averaged over ….
With chain 1 QFTEEDLLFVLYGVTP [chain 1 H8L], the screen value was 0.000127 average fractional NGS count over selection days 2 and 3 (reads of this peptide / all reads for the bait, averaged over ….
Still for that read-out and setting: then chain 1 QFTEEDLEFVLYGVTP [chain 1 H8E], with 4.27e-05 average fractional NGS count over selection days 2 and 3 (reads of this peptide / all reads for the bait, averaged over ….
On to chain 1 QFTEEDLNFVLYGVTP [chain 1 H8N], for which the screen value is 0.00229 average fractional NGS count over selection days 2 and 3 (reads of this peptide / all reads for the bait, averaged over ….
Same read-out and setting: the same measure for chain 1 QFTEEDLHFVLYGLTP [chain 1 V14L]: 4.25e-05 average fractional NGS count over selection days 2 and 3 (reads of this peptide / all reads for the bait, averaged over …; for chain 1 QFTEEDLHFVLYGITP [chain 1 V14I]: 7.71e-05 average fractional NGS count over selection days 2 and 3 (reads of this peptide / all reads for the bait, averaged over ….
